The source of these data is publication PMC8429977, “Phosphorylation of slit diaphragm proteins NEPHRIN and NEPH1 upon binding of HGF promotes podocyte repair” (The Journal of Biological Chemistry, 2021).

This test concerns the target T1, purified human recombinant HGF (human, UniProt P14210 32-728).
T1 construct: hepatocyte growth factor, human, recombinant, purified; also called hepatocyte growth factor; recombinant human active HGF; source: bought: Sigma
The test is described as follows: far-Western, overlay or dot blot; 300 ng peptide spotted on nitrocellulose, blocked with fat-free milk, incubated with 1 μg recombinant purified HGF in 5% BSA in PBS at 4 °C, detected with anti-HGF antibody. The conditions noted are these: both partners purified.

T1 sequence (P14210 32-728): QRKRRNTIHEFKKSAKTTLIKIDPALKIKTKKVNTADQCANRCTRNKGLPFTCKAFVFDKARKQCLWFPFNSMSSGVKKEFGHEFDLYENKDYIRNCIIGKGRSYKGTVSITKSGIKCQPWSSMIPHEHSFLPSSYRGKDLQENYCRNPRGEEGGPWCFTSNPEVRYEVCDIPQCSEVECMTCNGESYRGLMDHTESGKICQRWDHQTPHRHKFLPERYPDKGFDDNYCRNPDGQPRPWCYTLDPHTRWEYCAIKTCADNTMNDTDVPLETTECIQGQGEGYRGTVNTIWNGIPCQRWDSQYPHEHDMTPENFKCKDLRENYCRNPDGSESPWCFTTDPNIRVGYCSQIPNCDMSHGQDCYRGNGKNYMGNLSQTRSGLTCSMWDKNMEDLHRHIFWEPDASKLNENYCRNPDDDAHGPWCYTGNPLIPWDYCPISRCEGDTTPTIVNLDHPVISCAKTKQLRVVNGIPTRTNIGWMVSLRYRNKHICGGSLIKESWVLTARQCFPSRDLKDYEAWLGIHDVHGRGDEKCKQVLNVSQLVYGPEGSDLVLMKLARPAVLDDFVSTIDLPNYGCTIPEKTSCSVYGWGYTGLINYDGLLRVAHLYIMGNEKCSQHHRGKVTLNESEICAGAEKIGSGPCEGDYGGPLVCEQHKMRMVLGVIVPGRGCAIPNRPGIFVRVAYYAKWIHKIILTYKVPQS

B1: NEPHRIN Peptide-1 (peptide)
peptide: PDITILLSGQTISDISANVNEGSQQKL
notes: also called NEPHRIN-P1; NEPHRIN P1; source: synthetic peptide (Fmoc solid phase, HPLC purified)
B1: the binding result is on record as “binds”.

B2: NEPH1 Peptide-1 (peptide)
peptide: QEGERVVFTCQATANPEIL
notes: also called NEPH-P1; NEPH1-P1; source: synthetic peptide (Fmoc solid phase, HPLC purified)
Consider B2, for which the binding result is “binds”.
